Data taken from patent US20040260068A1 (published 2004).
Where a chain is given by its changes, count along the chain named. In names and notes the source's numbering stands. Several values for one entry are separate records, joined by “and”; a condition that tells them apart may be missing. Identical values can stand only once.

How the values were obtained:
[1] = target: T1, concanavalin A (UniProt P02866 30-281); test: ELISA on coated protein
T1 construct: Control antigen
Procedure: (§1) For binding to various proteins, ELISA plates were coated with chicken lysozyme (Sigma), human globin (Sigma), bovine albumin (Sigma), and concanavalin A (Pharmacia) as well as human and mouse IL-12 (R&D) at 0.1 μg/ml in 0.2 M sodium carbonate buffer (pH 9.4) and blocked with SuperBlock buffer (Pierce).

[2] = target: T2, chicken lysozyme (chicken, UniProt P00698 19-147); test: ELISA on coated protein
T2 construct: Control antigen; also called hen egg lysozyme
T2 sequence (P00698 19-147): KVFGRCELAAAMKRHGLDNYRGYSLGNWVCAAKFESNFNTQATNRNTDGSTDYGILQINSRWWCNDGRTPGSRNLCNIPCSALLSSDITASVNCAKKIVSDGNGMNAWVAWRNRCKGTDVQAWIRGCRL
Procedure: as §1

[3] = target: T3, bovine albumin (bovine, UniProt P02769 25-607); test: ELISA on coated protein
T3 construct: Control antigen
T3 sequence (P02769 25-607 limits assumed): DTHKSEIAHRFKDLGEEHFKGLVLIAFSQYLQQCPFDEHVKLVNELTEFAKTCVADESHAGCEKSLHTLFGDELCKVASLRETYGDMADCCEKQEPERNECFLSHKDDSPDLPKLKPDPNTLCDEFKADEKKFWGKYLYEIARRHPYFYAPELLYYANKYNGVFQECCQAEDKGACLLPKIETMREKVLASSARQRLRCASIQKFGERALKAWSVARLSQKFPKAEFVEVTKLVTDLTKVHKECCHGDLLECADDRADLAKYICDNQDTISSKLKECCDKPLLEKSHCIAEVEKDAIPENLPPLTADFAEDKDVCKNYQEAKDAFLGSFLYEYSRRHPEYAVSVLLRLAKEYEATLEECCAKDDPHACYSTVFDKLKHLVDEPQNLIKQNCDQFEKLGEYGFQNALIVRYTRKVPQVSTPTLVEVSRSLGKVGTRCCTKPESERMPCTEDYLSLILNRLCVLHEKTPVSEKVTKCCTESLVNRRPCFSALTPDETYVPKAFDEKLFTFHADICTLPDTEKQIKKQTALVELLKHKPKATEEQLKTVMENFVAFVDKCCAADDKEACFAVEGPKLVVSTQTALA
Procedure: as §1

[4] = target: T4, human IL-12 (human, UniProt P29459 23-219; P29460 23-328); test: competition ELISA on coated human IL-12; competitor of biotinylated humanized B1
T4 construct: also called human IL-12 p70 heterodimer; IL-12 p75
T4 sequence (looked up) 1: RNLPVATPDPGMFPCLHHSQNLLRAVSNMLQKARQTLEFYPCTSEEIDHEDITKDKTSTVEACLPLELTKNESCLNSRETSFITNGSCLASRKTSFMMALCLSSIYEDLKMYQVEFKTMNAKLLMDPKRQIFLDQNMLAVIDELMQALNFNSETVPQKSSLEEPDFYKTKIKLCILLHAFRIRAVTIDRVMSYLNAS
T4 sequence (looked up) 2: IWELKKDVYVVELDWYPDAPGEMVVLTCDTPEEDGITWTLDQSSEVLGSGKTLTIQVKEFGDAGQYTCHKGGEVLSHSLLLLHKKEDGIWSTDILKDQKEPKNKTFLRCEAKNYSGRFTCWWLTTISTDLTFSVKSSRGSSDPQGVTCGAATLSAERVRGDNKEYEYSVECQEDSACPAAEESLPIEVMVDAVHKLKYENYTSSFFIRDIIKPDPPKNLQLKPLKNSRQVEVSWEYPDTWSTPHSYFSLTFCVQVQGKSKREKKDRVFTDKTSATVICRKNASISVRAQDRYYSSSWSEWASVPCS
Procedure: (§2) MaxiSorp plates were coated with 100 μl of 0.1 μg/ml human or mouse IL-12 (R&D) and blocked with Superblock blocking buffer. […] As a background control, 100 μl of ELISA Buffer was used. ELISA plates were incubated at room temperature for 2 hr. After washing the wells with Washing Buffer (PBS containing 0.1 % Tween 20), 100 μl of 1 μg/ml HRP-conjugated streptavidin (Pierce) in ELISA buffer was added to each well. ELISA plates were incubated at room temperature for 30 min and washed with Washing Buffer. For color development, 100 μI/well of ABTS substrate was added. Color development was stopped by adding 100 μl/well of 2% oxalic acid. Absorbance was read at 415 nm.

[5] = target: T5, mouse IL-12 (mouse, UniProt P43431 23-215; P43432 23-335); test: competition ELISA on coated mouse IL-12; competitor of biotinylated humanized B1
T5 sequence (looked up) 1: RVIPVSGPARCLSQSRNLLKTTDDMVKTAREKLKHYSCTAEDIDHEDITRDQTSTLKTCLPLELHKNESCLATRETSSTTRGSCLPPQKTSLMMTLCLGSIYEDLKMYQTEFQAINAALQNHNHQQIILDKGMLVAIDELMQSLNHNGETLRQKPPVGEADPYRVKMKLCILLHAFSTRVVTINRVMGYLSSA
T5 sequence (looked up) 2: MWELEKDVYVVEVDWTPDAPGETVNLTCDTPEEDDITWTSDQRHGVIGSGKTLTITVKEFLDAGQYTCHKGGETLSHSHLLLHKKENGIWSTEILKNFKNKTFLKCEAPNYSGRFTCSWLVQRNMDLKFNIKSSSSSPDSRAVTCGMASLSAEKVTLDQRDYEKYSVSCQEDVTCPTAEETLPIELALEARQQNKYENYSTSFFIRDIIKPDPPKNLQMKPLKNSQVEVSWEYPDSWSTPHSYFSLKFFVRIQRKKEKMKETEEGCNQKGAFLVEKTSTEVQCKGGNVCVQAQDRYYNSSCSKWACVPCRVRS
Procedure: as §2

[6] = target: T5, mouse IL-12; test: competition ELISA on coated mouse IL-12
Procedure: as §2

[7] = target: T5, mouse IL-12; test: competitive binding assay (competition ELISA)
Procedure: as §2

[8] = target: T4, human IL-12; test: competition ELISA on coated human IL-12
Procedure: (§3) ELISA plates were incubated at room temperature for 2 hr. After washing the wells with Washing Buffer, 0.5 μg/ml HRP-conjugated streptavidin (Pierce) was added to each well. Color development was performed with TMB substrate (Kirkegaard & Perry Laboratories).

[9] = target: T4, human IL-12; test: competition ELISA on coated human IL-12; competitor of biotinylated ChDD2
Procedure: as §3

[10] = target: T5, mouse IL-12; test: competition ELISA on coated mouse IL-12; competitor of biotinylated ChDD2
Procedure: as §3, with “MaxiSorp plates (Nalge Nunc, Rochester N.Y.) were coated with 0.1 μg/ml human or mouse IL-12. […] ELISA” for “ELISA”

B1: humanized B1 IgG1/λ monoclonal antibody (antibody, V domains shown)
VH: EVQLVESGGGLVQPGGSLRLSCAASGFTFSSYSMLWVRQAPGKGLEYVAEITNTGRTRRYGAAVKGRATISRDNAKNTVYLQMNSLRAEDTAVYYCARSSVYSCSYGWCAGNINAWGQGTLVTVSS
VL: SSELTQPPSVSVALGQTVRITCSGGYSGYYGWYQQKPGQAPVTVIYDNTRRPSDIPSRFSGSKSGSTATLTITGVQAEDEADYYCGTWDSSRVGIFGGGTKLTVL
notes: made in Sp2/0; also called HuB1
[1]
  binding result: no binding (tested: 0.01 µg/ml antibody)
[2]
  binding result: no binding (tested: 0.01 µg/ml antibody)
[3]
  binding result: no binding (tested: 0.01 µg/ml antibody)
[4]
  IC50: 5.8 µg/mL
[5]
  IC50: 6.2 µg/mL
[6]
  fold decrease in relative binding against chimeric B1 (fold): ~2.1 fold
[7]
  fold better affinity than chimeric B1: ~2 fold
[8]
  fold better binding than chimeric B1: ~1.4 fold

B2: humanized DD2 IgG1/λ monoclonal antibody (antibody, V domains shown)
VH: EVQLVESGGGLVQPGGSLRLSCAASGFDFSNYQLQWVRQAPGKGLEWVGGIGSSGSSTYYGAAVKGRATISRDNAKNSVYLQMNSLRAEDTAVYYCTRGVSPYSCWYAGRTSYTCHAYTAGSIDAWGQGTLVTVSS
VL: SSELTQDPAVSVALGQTVRITCPGGGIYAGRYYGYGWFQQKPGQAPVTVIYSNDKRPSDIPSRFSGSASGSTASLTITGAQAEDEADYYCGSHDSNVGVFGGGTKLTVL
notes: also called HuDD2; wild-type HuDD2
[9]
  IC50: 4.2 µg/mL and 3.5 µg/mL
[10]
  IC50: 2.4 µg/mL

B3: HuDD2 VH V78L mutant (antibody, IgG1, name in Kabat numbering, V domains shown)
VH: B2 VH with V79L
VL: B2 VL
notes: IgG1/λ as HuDD2; H78 (Kabat) is the position named as the one tested; also called V79L
[9]
  IC50: 7 µg/mL
[8]
  fold reduction of binding affinity against wild-type HuDD2: 2 fold

B4: HuDD2 Vλ S69N mutant (antibody, IgG1, V domains shown)
VH: B2 VH
VL: B2 VL with S71N
notes: IgG1/λ as HuDD2; Kabat numbering
[9]
  IC50: 4.3 µg/mL

B5: HuDD2 Vλ T46L mutant (antibody, IgG1, V domains shown)
VH: B2 VH
VL: B2 VL with T48L
notes: as for B4
[9]
  IC50: 16.1 µg/mL
[8]
  fold reduction of binding affinity against wild-type HuDD2: 4.6 fold

B6: HuDD2 Vλ A66S mutant (antibody, IgG1, V domains shown)
VH: B2 VH
VL: B2 VL with A68S
notes: as for B4
[9]
  IC50: 3.4 µg/mL

B7: HuDD2 VH A67F mutant (antibody, IgG1, name in Kabat numbering, V domains shown)
VH: B2 VH with A68F
VL: B2 VL
notes: IgG1/λ as HuDD2
[9]
  IC50: 2.1 µg/mL

B8: HuDD2 VH T93A mutant (antibody, IgG1, name in Kabat numbering, V domains shown)
VH: B2 VH with T97A
VL: B2 VL
notes: as for B4
[9]
  IC50: 3.3 µg/mL

B9: chimeric B1 IgG1/λ antibody (chicken-human chimeric anti-IL-12 antibody B1) (antibody, V domains shown)
VH: AVTLDESGGGLQTPGGALSLVCKASGFTFSSYSMLWVRQAPGKGLEYVAEITNTGRTRRYGAAVKGRATISRDNGQSTVRLQLNNLRAEDTGTYYCARSSVYSCSYGWCAGNINAWGHGTEVIVSS
VL: ALTQPASVSANLGGTVKITCSGGYSGYYGWYQQKSPGSAPVTVIYDNTRRPSDIPSRFSGSKSGSTATLTITGVQADDEAVYFCGTWDSSRVGIFGAGTTLTVL
notes: made in Sp2/0; also called ChB1
[1]
  binding result: no binding (tested: 0.01 µg/ml antibody)
[2]
  binding result: no binding (tested: 0.01 µg/ml antibody)
[3]
  binding result: no binding (tested: 0.01 µg/ml antibody)
[4]
  IC50: 8.3 µg/mL
[5]
  IC50: 13 µg/mL

B10: chicken-human chimeric anti-IL-12 antibody DD2 (antibody, V domains shown)
VH: AVTLDESGGGLQTPGGGLSLVCKASGFDFSNYQLQWVRQAPGKGLEWVGGIGSSGSSTYYGAAVKGRATISRDNGQSTVRLQLNNLRAEDTGTYYCTRGVSPYSCWYAGRTSYTCHAYTAGSIDAWGHGTEVIVSS
VL: ALTQPASVSANPGETVKITCPGGGIYAGRYYGYGWFQQKSPGSAPVTVIYSNDKRPSDIPSRFSGSASGSTATLTITGVQADDEAVYFCGSHDSNVGVFGAGTTLTVL
notes: made in Sp2/0; also called ChDD2; chimeric DD2
[9]
  IC50: 4 µg/mL
[10]
  IC50: 2.4 µg/mL
